Test [1] concerns the target Flag-tagged PU.1 Y252N (human) (UniProt P17947).
The target of test [2] is Flag-tagged PU.1 Q202L (human) (UniProt P17947).
Test [3] deals with Flag-tagged PU.1 wild-type (human) (UniProt P17947).
For test [4], the target named is Flag-tagged PU.1 F203Y (human) (UniProt P17947).

In the case of “myc-tagged c-Jun (from UniProt P05412 1-331) (natural protein)”, the luciferase activity of the human M-CSFR promoter reporter, F9 cells, PU.1 mutant co-transfected with c-Jun, fold activation in test [1] was determined as 3.5 fold; in test [2], 5 fold; in test [4], 5 fold. This substance had a luciferase activity of the human M-CSFR promoter reporter, F9 cells (no endogenous c-Jun), PU.1 co-transfected with c-Jun, fold activation in test [3] of 25 fold.
